The source of these data is the supplement of paper PMC5998384.

In data set [1] the test system is HeLa Kyoto. As to the kind of experiment: melting temperature (median over replicates), in situ; higher = more thermally stable.
In data set [2] the test system is HeLa Kyoto. Kind of data set: thermal stability score vs G1/S (z-score of summed log2 fold changes over temperatures); higher = more thermally stable than in G1/S.
Data set [3] deals with HeLa Kyoto. Kind of data set: solubility in G1/S (NP-40 vs SDS abundance) (log2 ratio); higher = more soluble. The note with it: cell cycle stage: G1/S.
For data set [4], the system named is HeLa Kyoto. As to the kind of experiment: solubility change mitosis vs G1/S (difference of NP-40 vs SDS log2 ratios) (log2 ratio difference); higher = more soluble in mitosis.
Where [5] appears, read: cell cycle stage: early G1 (4.5 h after nocodazole release).
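Throughout, for melting temperature (median over replicates), in situ: HeLa Kyoto cells synchronized by double thymidine or nocodazole block, proteins quantified by TMT10plex mass spectrometry, three independent biological replicates.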
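Throughout, for solubility change mitosis vs G1/S (difference of NP-40 vs SDS log2 ratios): synchronized HeLa Kyoto cells (double thymidine block for G1/S, nocodazole release for mitosis), protein amounts in NP-40 versus SDS lysates quantified by mass spectrometry, three biological replicates.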
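Throughout, for solubility in G1/S (NP-40 vs SDS abundance): HeLa Kyoto cells arrested at G1/S by double thymidine block, proteins quantified by TMT10plex mass spectrometry in mild NP-40 versus SDS extracts, three biological replicates.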
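Throughout, for thermal stability score vs G1/S (z-score of summed log2 fold changes over temperatures): synchronized HeLa Kyoto cells, proteins quantified by TMT10plex mass spectrometry, three biological replicates, mitosis taken 0.5 h after nocodazole release, G1/S directly after double thymidine block.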

In the case of “MPAVDKLLLEEALQDSPQTRSLLSVFEEDAGTLTDYTNQLLQAMQRVYGAQNEMCLATQQLSKQLLAYEKQNFALGKGDEEVISTLHYFSKVVDELNLLHTELAKQLADTMVLPIIQFREKDLTEVSTLKDLFGLASNEHDLSMAKYSRLPKKKENEKVKTEVGKEVAAARRKQHLSSLQYYCALNALQYRKQMAMMEPMIGFAHGQINFFKKGAEMFSKRMDSFLSSVADMVQSIQVELEAEAEKMRVSQQELLSVDESVYTPDSDVAAPQINRNLIQKAGYLNLRNKTGLVTTTWERLYFFTQGGNLMCQPRGAVAGGLIQDLDNCSVMAVDCEDRRYCFQITTPNGKSGIILQAESRKENEEWICAINNISRQIYLTDNPEAVAIKLNQTALQAVTPITSFGKKQESSCPSQNLKNSEMENENDKIVPKATASLPEAEELIAPGTPIQFDIVLPATEFLDQNRGSRRTNPFGETEDESFPEAEDSLLQQMFIVRFLGSMAVKTDSTTEVIYEAMRQVLAARAIHNIFRMTESHLMVTSQSLRLIDPQTQVSRANFELTSVTQFAAHQENKRLVGFVIRVPESTGEESLSTYIFESNSEGEKICYAINLGKEIIEVQKDPEALAQLMLSIPLTNDGKYVLLNDQPDDDDGNPNEHRGAESEA [APPL2]”, the melting temperature in data set [1] (cell cycle stage: G1/S) was found to be 49.1 °C; in data set [1] (cell cycle stage: mitosis), 49.5 °C. Moreover, the thermal stability score in data set [2] (setting [5]) was -0.102; in data set [2] (cell cycle stage: mitosis), 0.993. The “solubility in G1/S (log2)” value in data set [3] was 0.193. Moreover, in data set [4], the “solubility change mitosis (log2)” value was -0.0416.
Turning to “MPAVSKGDGMRGLAVFISDIRNCKSKEAEIKRINKELANIRSKFKGDKALDGYSKKKYVCKLLFIFLLGHDIDFGHMEAVNLLSSNKYTEKQIGYLFISVLVNSNSELIRLINNAIKNDLASRNPTFMCLALHCIANVGSREMGEAFAADIPRILVAGDSMDSVKQSAALCLLRLYKASPDLVPMGEWTARVVHLLNDQHMGVVTAAVSLITCLCKKNPDDFKTCVSLAVSRLSRIVSSASTDLQDYTYYFVPAPWLSVKLLRLLQCYPPPEDAAVKGRLVECLETVLNKAQEPPKSKKVQHSNAKNAILFETISLIIHYDSEPNLLVRACNQLGQFLQHRETNLRYLALESMCTLASSEFSHEAVKTHIDTVINALKTERDVSVRQRAADLLYAMCDRSNAKQIVSEMLRYLETADYAIREEIVLKVAILAEKYAVDYSWYVDTILNLIRIAGDYVSEEVWYRVLQIVTNRDDVQGYAAKTVFEALQAPACHENMVKVGGYILGEFGNLIAGDPRSSPPVQFSLLHSKFHLCSVATRALLLSTYIKFINLFPETKATIQGVLRAGSQLRNADVELQQRAVEYLTLSSVASTDVLATVLEEMPPFPERESSILAKLKRKKGPGAGSALDDGRRDPSSNDINGGMEPTPSTVSTPSPSADLLGLRAAPPPAAPPASAGAGNLLVDVFDGPAAQPSLGPTPEEAFLSELEPPAPESPMALLADPAPAADPGPEDIGPPIPEADELLNKFVCKNNGVLFENQLLQIGVKSEFRQNLGRMYLFYGNKTSVQFQNFSPTVVHPGDLQTQLAVQTKRVAAQVDGGAQVQQVLNIECLRDFLTPPLLSVRFRYGGAPQALTLKLPVTINKFFQPTEMAAQDFFQRWKQLSLPQQEAQKIFKANHPMDAEVTKAKLLGFGSALLDNVDPNPENFVGAGIIQTKALQVGCLLRLEPNAQAQMYRLTLRTSKEPVSRHLCELLAQQF [AP2A1]”, the melting temperature in data set [1] (cell cycle stage: G1/S) was determined as 52 °C; in data set [1] (cell cycle stage: mitosis), 51.9 °C. The thermal stability score in data set [2] (setting [5]) was 0.878; in data set [2] (cell cycle stage: mitosis) it was 2.23. In addition, the “solubility in G1/S (log2)” value in data set [3] is -0.0177. Moreover, in data set [4], the “solubility change mitosis (log2)” value was -0.103.
On to “MPEAPPLLLAAVLLGLVLLVVLLLLLRHWGWGLCLIGWNEFILQPIHNLLMGDTKEQRILNHVLQHAEPGNAQSVLEAIDTYCEQKEWAMNVGDKKGKIVDAVIQEHQPSVLLELGAYCGYSAVRMARLLSPGARLITIEINPDCAAITQRMVDFAGVKDKVTLVVGASQDIIPQLKKKYDVDTLDMVFLDHWKDRYLPDTLLLEECGLLRKGTVLLADNVICPGAPDFLAHVRGSSCFECTHYQSFLEYREVVDGLEKAIYKGPGSEAGP [COMT]”, for which the melting temperature in data set [1] (cell cycle stage: G1/S) was determined as 52.9 °C; in data set [1] (cell cycle stage: mitosis) it was 54.2 °C. In addition, the thermal stability score in data set [2] (setting [5]) came out at 3.01; in data set [2] (cell cycle stage: mitosis), 5.26. Further, the “solubility in G1/S (log2)” value in data set [3] is -0.0917. For the same sequence, the “solubility change mitosis (log2)” value in data set [4] is -0.128.
